Experimental data taken from patent US20180244777A1 (NUMAB THERAPEUTICS, published 2018).

T1: linear 15mer peptide derived from cynomolgus CD3ε residues 2-16 (wild type of the substitution library, Set 2) (cynomolgus)
T1 construct: Probed as a saturation mutagenesis library on a peptide array
T1 peptide: DGNEEMGSITQTPYQ

T2: linear 15mer peptide derived from human CD3ε residues 2-16 (wild type of the substitution library, Set 1) (human)
T2 construct: Probed as a saturation mutagenesis library on a peptide array
T2 peptide: DGNEEMGGITQTPYK

T3: linear 15mer peptides derived from cynomolgus CD3ε residues 5-20 (Set 4) (cynomolgus)
T3 construct: also called peptides spanning residues 5-20
T3 peptide: EEMGSITQTPYQVSIS

T4: linear 15mer peptides derived from human CD3ε residues 5-20 (Set 3) (human)
T4 construct: also called peptides spanning residues 5-20
T4 peptide: EEMGGITQTPYKVSIS


Experiments:
[1] = target: human CD3ε expressed on the cell surface of T cells (Jurkat cells; human CD8+ T cells) (human) (UniProt P07766); experiment: cell-based or functional assay
[2] = target: T5, human heterodimeric single-chain CD3εγ extracellular domain (human, UniProt P07766 23-126; P09693 23-116); experiment: SPR, rabbit IgG captured, human single-chain CD3εγ ECD injected
T5 construct: extracellular domain; Produced in-house; also called scCD3γε; human CD3ge
Method: Binding affinities of monoclonal rabbit anti-CD3 antibodies were measured by surface plasmon resonance (SPR) using a MASS-1 SPR instrument (Sierra Sensors). […] Rabbit monoclonal antibodies were captured by the immobilized anti-rabbit IgG antibody. Two-fold serial dilutions of human heterodimeric single-chain CD3εγ extracellular domain (produced in-house) ranging from 90 to 2.81 nM were injected into the flow cells for 3 min and dissociation of the protein from the IgG captured on the sensor chip was allowed to proceed for 5 min. After each injection cycle, surfaces were regenerated with two injections of 10 mM glycine-HCl. The apparent dissociation (kd) and association (ka) rate constants and the apparent dissociation equilibrium constant (KD) were calculated with the MASS-1 analysis software (Analyzer, Sierra Sensors) using one-to-one Langmuir binding model.

[3] = target: T6, cynomolgus monkey heterodimeric single-chain CD3εγ extracellular domain (cynomolgus monkey, UniProt Q95LI5 22-117; Q95LI7 23-113); experiment: SPR; ratio of the KDs for cyno and human single-chain CD3εγ
T6 sequence (Q95LI7 other isoform, or with tags, fused parts or gaps): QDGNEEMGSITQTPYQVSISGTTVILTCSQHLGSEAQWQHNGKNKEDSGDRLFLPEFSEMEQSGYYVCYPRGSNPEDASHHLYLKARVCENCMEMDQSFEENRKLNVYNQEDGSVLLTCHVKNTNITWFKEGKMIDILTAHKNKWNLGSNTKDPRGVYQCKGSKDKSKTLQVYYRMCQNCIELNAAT

[4] = target: T6, cynomolgus monkey heterodimeric …; experiment: SPR, rabbit IgG captured, cyno single-chain CD3εγ ECD injected
[5] = target: T7, human CD3ε expressed on the cell surface of T cells (Jurkat cells; human CD8+ T cells) (human, UniProt P07766 23-207); experiment: cell-based ELISA on Jurkat cells, CD3ε-deficient Jurkat subtracted
T7 construct: whole, on cells; also called native CD3ε embedded in the TCR complex on Jurkat cells
Method: Jurkat cells (clone E6-1), a human T cell line, were seeded at 300,000 cells/well in round bottom 96-well plates in 100 μl phosphate-buffered saline (PBS) containing 10% FBS. Five-fold serial dilutions of anti-CD3 rabbit monoclonal antibodies ranging from 90 nM to 0.0058 nM were added to the plates in 100 μl PBS containing 10% FBS. […] This secondary antibody was linked to the enzyme horseradish peroxidase (HRP). HRP activity was measured by addition of TMB substrate (3,3′,5,5′-tetramethylbenzidine, KPL, Cat. No. 53-00-00), which in a colorimetric reaction is processed by the HRP. The color intensity of the processed substrate is directly proportional to the amount of anti-CD3 antibody bound to Jurkat cells. To quantify color intensity, light absorbance (optical density) at the respective wave length was measured using a microtiter plate reader (Infinity reader M200 Pro, Tecan).
To correct for unspecific binding of the antibodies to unknown components presented on the cell surface of Jurkat cells, a CD3ε deficient derivative of the Jurkat T cell line (J.RT3-T3.5) was used. Binding of the monoclonal antibodies to this cell line was measured as described above for the Jurkat cells. For quantification of specific binding to Jurkat cells, the optical density for binding to the negative control was subtracted from the optical density for binding to Jurkat cells. Data were analyzed using a four-parameter logistic curve fit using the Softmax Data Analysis Software (Molecular Devices), and the molar concentration of anti-CD3 antibody required to reach 50% binding (EC₅₀, mid-OD of the standard curve) was derived from dose response curves.

[6] = target: T7, human CD3ε expressed on the cell …; experiment: cell-based or functional assay
[7] = target: T1, linear 15mer peptide derived from …; experiment: 15mer peptide array ELISA
[8] = target: T2, linear 15mer peptide derived from human …; experiment: 15mer peptide array ELISA
[9] = target: T3, linear 15mer peptides derived from …; experiment: peptide array ELISA, Set 4
Method: (§1) The binding of the antibodies to each of the synthesized peptides was tested by ELISA. The peptide arrays were incubated with primary antibody solution (overnight at 4° C.). After washing, the peptide arrays were incubated with a 1/1000 dilution of an antibody peroxidase conjugate (SBA, cat.nr.2010-05) for one hour at 25° C. After washing, the peroxidase substrate 2,2′-azino-di-3-ethylbenzthiazoline sulfonate (ABTS) and 2 μl/ml of 3% H₂O₂ were added. After one hour, the color development was measured. The color development was quantified with a charge coupled device (CCD)—camera and an image processing system.

[10] = target: T4, linear 15mer peptides derived from …; experiment: peptide array ELISA, Set 3
Method: as §1

mouse CD3ε = mouse CD3ε (mouse, UniProt P22646 22-108, limits assumed); experiment: SPR
Chain of mouse CD3ε (P22646 22-108 limits assumed): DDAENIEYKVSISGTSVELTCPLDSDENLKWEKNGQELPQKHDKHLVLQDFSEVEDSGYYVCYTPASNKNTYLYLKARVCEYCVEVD

Molecule	Kd [2] [nM]	koff [2] [s⁻¹]	kon [2] [M⁻¹ s⁻¹]	KD (human)/KD (cyno) [3]	Kd [4] [nM]	koff [4] [s⁻¹]	kon [4] [M⁻¹ s⁻¹]	EC50 [5] [nM]	also measured
TR66 (antibody)	–	–	–	–	–	–	–	–	Fold increase in CD69 expression [MFI normalized to neg. ctrl.], 1.25 µg/ml anti-CD3 IgG [1]: 1.6 fold; Fold increase in CD69 expression [MFI normalized to neg. ctrl.], 5 µg/ml anti-CD3 IgG [1]: 2.2 fold; Fold increase in CD69 expression [MFI normalized to neg. ctrl.], 20 µg/ml anti-CD3 IgG [1]: 3 fold
OKT3 (antibody)	–	–	–	–	–	–	–	–	Fold increase in CD69 expression [MFI normalized to neg. ctrl.], 1.25 µg/ml anti-CD3 IgG [1]: 1.8 fold; Fold increase in CD69 expression [MFI normalized to neg. ctrl.], 5 µg/ml anti-CD3 IgG [1]: 2.5 fold; Fold increase in CD69 expression [MFI normalized to neg. ctrl.], 20 µg/ml anti-CD3 IgG [1]: 3.1 fold
clone-01 (antibody, V domains shown, Recombinant rabbit IgG; also called purified monoclonal rabbit anti-CD3ε antibody clone-01) VH: QSVEESGGRLVTPGTPLTLTCTVSGFPLSSYAMIWVRQAPGKGLEWIGMILRAGNIYYASWAKGRFTISKTSTTVDLKITSPTTEDTATYFCARRQYNTDGYPIGIGDLWGPGTLVTVSS VL: AQVLTQTASSVSAAVGGTVTISCQSSESVYNNNRLSWFQQKPGQPPKQLIYSASSLASGVPSRFKGSGSGTQFTLTISDLECDDAATYYCQGEFSCSSADCFTFGGGTEVVVKG	2.97	0.00159	536000	3	10.2	0.00392	386000	0.58	–
clone-10 (antibody, V domains shown, Recombinant rabbit IgG) VH: QSLEESGGRLVTPGTPLTLTCTVSGFPLSSFAMLWVRQAPGKGLEWIGMIMRAHNMYYASWAKGRFTISKTSTTVDLEITSPTTEDTATYFCARRHYNTYGYPIAIGDLWGPGTLVTVSS VL: AQVLTQTPSSVSAAVGGTATISCQSNENIYSNNRLSWFQQKAGQPPNQLIYSASSLASGVPSRFKGSGSGTQFTLTISDLECDDAATYYCQGEFSCSSADCFTFGGGTEVVVKG	1.66	0.00126	757000	7	10.9	0.00349	321000	0.35	Fold increase in CD69 expression [MFI normalized to neg. ctrl.], 1.25 µg/ml anti-CD3 IgG [6]: 2.6 fold; Fold increase in CD69 expression [MFI normalized to neg. ctrl.], 5 µg/ml anti-CD3 IgG [6]: 4.2 fold; Fold increase in CD69 expression [MFI normalized to neg. ctrl.], 20 µg/ml anti-CD3 IgG [6]: 6.2 fold
clone-04 (antibody, V domains shown, Recombinant rabbit IgG; also called Clone 4) VH: QSLEESGGRLVKPDETLTLTCTVSGFPLSSYAMGWFRQAPGKGLEWIGMILRSDNTYYASWAKGRFTISKTSTTVDLKITSPTTEDTATYFCARRHYNASGNPIAIGDLWGPGTLVTVSS VL: AQVLTQTPSSVSAAVGGTVTINCQSSQSVYNNNRLSWFQQKPGQPPKLLIYTTSSLASGVPSRFKGSGSGTEFTLTISDLECADAATYYCQGEFSCSRADCFNFGGGTEVVVKG	0.113	9.88e-05	873000	36	4.12	0.00266	646000	1.87	binding result [7]: binds; binding result [8]: binds; binding result [9]: no binding; binding result [10]: no binding; Fold increase in CD69 expression [MFI normalized to neg. ctrl.], 1.25 µg/ml anti-CD3 IgG [6]: 2.6 fold; Fold increase in CD69 expression [MFI normalized to neg. ctrl.], 5 µg/ml anti-CD3 IgG [6]: 3.5 fold; Fold increase in CD69 expression [MFI normalized to neg. ctrl.], 20 µg/ml anti-CD3 IgG [6]: 7.8 fold
clone-11 (antibody, V domains shown, Recombinant rabbit IgG) VH: QSLEESGGRLVTPGTPLTLTCTVSGFPLSSYAMGWFRQAPGKGLEWIGMILRADNTYYASWVNGRFTISKTSTTVDLKITSPTTEDTATYFCARRHYNTYGYPVAIGDLWGPGTLVTVSS VL: AQVLTQTPSSVSAAVGGTVTINCQSSQSVYNNNRLSWFQQKPGQPPKLLIYTASSLASGVPSRFKGSGSGTEFTLTISDLECADAATYYCQGEFSCSSADCFTFGGGTEVVVKG	3.13	0.00133	425000	3	10	0.00365	363000	0.28	–
clone-09 (antibody, V domains shown, Recombinant rabbit IgG) VH: QSLEESGGRLVTPGTPLTLTCTVSGFPLNRYAMLWVRQAPGKGLEWIGLITRADKKYYASWAKGRFTISKTSTTVDLEITGPTTEDTATYFCARRHYNTDGYPVAIGDLWGPGTLVTVSS VL: AQVLTQTPSSVSAAVGGTVTISCQSNENIYSNNRLSWFQQKPGQPPNQLIYSASSLASGVPSRFKGSGSGTQFTLTISDLECDDAATYYCQGEFNCNSADCFTFGGGTEVVVKG	1.14	0.000688	601000	10	11.6	0.00269	232000	0.82	–
clone-12 (antibody, V domains shown, Recombinant rabbit IgG) VH: QSLEESGGRLVTPGTPLTLTCTVSGFPLSRYAMLWVRQAPGKGLEWIGLITRADNKYYASWAKGRFTISKTSTTVDLEITSPTTEDTATYFCARRHYNTDGYPIAIGDLWGPGTLVTVSS VL: AQVLTQTPSSVSATVGGTVTISCQSNENIYSNNRLSWFQQKPGQPPKLLIYSASSLASGVPSRFKGSGSGTQFTLTISDLECDDAATYYCQGEFNCNSADCFTFGGGTEVVVKG	1.11	0.000798	721000	20	22.2	0.00314	142000	0.59	–
PRO400 (Fab, V domains shown, Chimeric Fab: hamster 2C11 variable domains with human CL and CH1; also called anti-mCD3 Fab; 2C11 Fab) VH: EVQLVESGGGLVQPGKSLKLSCEASGFTFSGYGMHWVRQAPGRGLESVAYITSSSINIKYADAVKGRFTVSRDNAKNLLFLQMNILKSEDTAMYYCARFDWDKNYWGQGTMVTVSS VL: DIQMTQSPSSLPASLGDRVTINCQASQDISNYLNWYQQKPGKAPKLLIYYTNKLADGVPSRFSGSGSGRDSSFTISSLESEDIGSYYCQQYYNYPWTFGPGTKLEIKR	–	–	–	–	–	–	–	–	Kd (mouse CD3ε): 11.4 nM; koff (mouse CD3ε): 0.00266 s⁻¹; kon (mouse CD3ε): 233000 M⁻¹ s⁻¹
